Test results as given in US20250011468A1 (Novo Nordisk, published 2025).

B1: mAb4-9578 (monovalent one-armed version of mAb1-7977) (antibody, V domains shown)
VH: EVQLVESGGGLVQPGRSLKLSCAASGFRFDDYAMHWVRQAPGKGLEWVSGISWRGAQIGYADSVKGRFTISRDNAKNSLYLQLNSLRAEDTALYYCAKSYGSGSFYNAFDSWGQGTLVTVSS
VL: DIQMTQSPSTLSASVGDRVTITCRASQKISSWLAWYQQKPGKAPKFLIYKASRLDRGVPSRFSGSGSGTEFSLTISSLQPDDFATYYCLEYRSYIRTFGQGTKVEIK
B2: mAb5-0908 (monovalent one-armed version of mAb1-8467) (antibody, V domains shown)
VH: EVQLVESGGGLVQPGRSLKLSCAASKFRFDDYAMHWVRQVPGKGLEWVSGISWRGDIIGYVDSVKGRFTISRDNEKNSLYLQLNSLRAEDTALYYCVKSYGSGSFYNAFDSWGQGTLVTVSS
VL: DIQMTQSPSTLSASAGDRVTITCRASKSISSWLAWYQQKPGKAPKFLIYKASRLERGVPSRFSGSGSGTEFSLTISSLQPDDFATYYCLEYSSYIRTFGQGTKVEIK
B3: mAb5-2035 (monovalent one-armed version of mAb1-9285) (antibody, V domains shown)
VH: EVQLVESGGGLVQPGRSLKLSCAASGFTFDDYAMHWVRQVPGKGLEWVSGISWRGDIIGYVKSVKGRFTISRDNAKNSLYLQLNSLRIEDTALYYCVKSYGSGSFYNAFDSWGQGTLVTVSS
VL: DIQMTQSPSTLSASAGDRVTITCRASKSISSWLAWYQQKPGKAPKFLIYKASRLERGVPSRFSGSGSGTEFSLTISSLQPDDFATYYCLEYSSYIRTFGQGTKVEIK
B4: mAb5-1695 (monovalent one-armed version of mAb1-9134) (antibody, V domains shown)
VH: EVQLVESGGGLVQPGRSLKLSCAASGFTFDDYAMHWVRQVPGKGLEWVSGISWKGDIIGYVDSVKGRFTISRDNAKNSLYLQLNSLRAEDTALYYCVKSYGSGSFYNAFDSWGQGTLVTVSS
VL: DIQMTQSPSTLSASAGDRVTITCRASQSISEWLAWYQQKPGKAPKFLIYKASRLDRGVPSRFSGSGSGTEFSLTISSLQPDDFATYYCLEYSSYIRTFGQGTKVEIK
B5: mAb5-1270 (monovalent one-armed version of mAb1-9016) (antibody, V domains shown)
VH: EVQLVESGGGLVQPGRSLKLSCAASGFTFDDYAMHWVRQVPGKGLEWVSGISWRGDIGGYVDSVKGRFTISRDNAKNSLYLQLNSLRAEDTALYYCVKSYGSGSFYNAFDSWGQGTLVTVSS
VL: DIQMTQSPSTLSASAGDRVTITCRASQSISSWLAWYQQKPGKAPKFLIYKASRLERGVPSRFSGSGSGTEFSLTISSLQPDDFATYYCLEYSSYIRTFGQGTKVEIK
B6: mAb5-0144 (monovalent one-armed version of mAb1-8780) (antibody, V domains shown)
VH: EVQLVESGGGLVQPGRSLKLSCAASGFTFHDYAMHWVRQVPGKGLEWVSGISWRGDIKGYVDSVKGRFTISRDNAKNSLYLQLNSLRAEDTALYYCVKSYGSGSFYNAFDSWGQGTLVTVSS
VL: DIQMTQSPSTLSASAGDRVTITCRASQSISSWLAWYQQKPGKAPKFLIYKASRLDRGVPSRFSGSGSGTEFSLTISSLQPDDFATYYCLEYSSYIRTFGQGTKVEIK
B7: mAb5-0658 (monovalent one-armed version of mAb1-8679) (antibody, V domains shown)
VH: EVQLVESGGGLVQPGRSLKLSCAASGFTFDDYAMHWVRQVPGKGLEWVSGISWRGDIIGYVKSVKGRFTISRDNAKNSLYLQLNSLRAEDTALYYCVKSYGSGSFYNAFDSWGQGTLVTVSS
VL: DIQMTQSPSTLSASVGDRVTITCRASKSIKSWLAWYQQKPGKAPKFLIYKASRLERGVPSRFSGSGSGTEFSLTISSLQPDDFATYYCLEYSSYIRTFGQGTKVEIK
B8: mAb5-1257 (monovalent one-armed version of mAb1-9002) (antibody, V domains shown)
VH: EVQLVESGGGLVQPGRSLKLSCAASKFTFDDYAMHWVRQVPGKGLEWVSGISWRGDIIGYVDSVKGRFTISRDNAKNSLYLQLNSLRAEDTALYYCVKSYGSGSFYNAFDSWGQGTLVTVSS
VL: DIQMTQSPSTLSASAGDRVTITCRASQSISSWLAWYQQKPGKAPKFLIYKASRLERGVPSRFSGSGSGTEFSLTISSLQPDDFATYYCLEYSSYIRTFGQGTKVEIK
B9: mAb5-0514 (monovalent one-armed version of mAb1-8543) (antibody, V domains shown)
VH: EVQLVESGGGLVQPGRSLKLSCAASKFRFDDYAMHWVRQVPGKGLEWVSGISWRGDIIGYVDSVKGRFTISRDNEKNSLYLQLNSLRAEDTALYYCVKSYGSGSFYNAFDSWGQGTLVTVSS
VL: DIQMTQSPSTLSASAGDRVTITCRASQSISSWLAWYQQKPGKAPKFLIYKASRLERDVPSRFSGSGSGTEFSLTISSLQPDDFATYYCLEYRSYIRTFGQGTKVEIK
B10: mAb5-1528 (monovalent one-armed version of mAb1-9058) (antibody, V domains shown)
VH: EVQLVESGGGLVQPGRSLKLSCAASGFTFHDYAMHWVRQVPGKGLEWVSGISWRGDIIGYVDSVKGRFTISRDNAKNSLYLQLNSLRAEDTALYYCVKSYGSGSFYNAFDSWGQGTLVTVSS
VL: DIQMTQSPSTLSASAGDRVTISCRASQSISSWLAWYQQKPGKAPKFLIYKASRLDRGVPSRFSGSGSGTEFTLTISSLQPDDFATYYCLEYNSYIRTFGQGTKVEIK
B11: mAb5-0161 (monovalent one-armed version of mAb1-8785) (antibody, V domains shown)
VH: EVQLVESGGGLVQPGRSLKLSCAASGFTFHDYAMHWVRQVPGKGLEWVSGISWRGDIIGYVDSVKGRFTISRDNKKNSLYLQLNSLRAEDTALYYCVKSYGSGSFYNAFDSWGQGTLVTVSS
VL: DIQMTQSPSTLSASAGDRVTITCRASQSISSWLAWYQQKPGKAPKFLIYKASRLDRGVPSRFSGSGSGTEFSLTISSLQPDDFATYYCLEYSSYIRTFGQGTKVEIK
B12: mAb5-1263 (monovalent one-armed version of mAb1-9015) (antibody, V domains shown)
VH: EVQLVESGGGLVQPGRSLKLSCAASGFTFDDYAMHWVRQVPGKGLEWVSGISWRGDIKGYVDSVKGRFTISRDNAKNSLYLQLNSLRAEDTALYYCVKSYGSGSFYNAFDSWGQGTLVTVSS
VL: DIQMTQSPSTLSASAGDRVTITCRASQSISSWLAWYQQKPGKAPKFLIYKASRLERGVPSRFSGSGSGTEFSLTISSLQPDDFATYYCLEYSSYIRTFGQGTKVEIK
B13: mAb5-0152 (monovalent one-armed version of mAb1-8782) (antibody, V domains shown)
VH: EVQLVESGGGLVQPGRSLKLSCAASGFTFHDYAMHWVRQVPGKGLEWVSGISWRGDITGYVDSVKGRFTISRDNAKNSLYLQLNSLRAEDTALYYCVKSYGSGSFYNAFDSWGQGTLVTVSS
VL: DIQMTQSPSTLSASAGDRVTITCRASQSISSWLAWYQQKPGKAPKFLIYKASRLDRGVPSRFSGSGSGTEFSLTISSLQPDDFATYYCLEYSSYIRTFGQGTKVEIK
B14: mAb5-0900 (monovalent one-armed version of mAb1-8459) (antibody, V domains shown)
VH: EVQLVESGGGLVQPGRSLKLSCAASGFTFDDYAMHWVRQVPGKGLEWVSGISWRGDIIGYVKSVKGRFTISRDNAKNSLYLQLNSLRIEDTALYYCVKSYGSGSFYNAFDSWGQGTLVTVSS
VL: DIQMTQSPSTLSASAGDRVTITCRASKSISSWLAWYQQKPGKAPKFLIYKAERLERGVPSRFSGSGSGTEFSLTISSLQPDDFATYYCLEYSSYIRTFGQGTKVEIK
B15: mAb4-3505 (monovalent one-armed version of mAb1-5797) (antibody, V domains shown)
VH: EVQLVQSGAEVKKPGESLRISCKGSGYRFTSYWIGWVRQMPGKGLEWMGMIDPTDSYTDYGPSFHGHVTISADKSISTAYLQWSSLKASDTAMYYCARMRIMSGAFDIWGQGTMVTVSS
VL: DIVMTQSPLSLPVTPGEPASISCRSSQSLLHSTWYNYLNWYLQKPGQSPQLLIYLGSRRASGVPDRFSGSGSGTDFTLKISRVEAEDVGVYYCMQVLHIPYTFGQGTKLEIK

Biological target: human plasma-derived FIXa (Haematologic Technologies Inc) (human, UniProt P00740 47-191; P00740 227-461)
Assay: cell-based or functional assay

Chain of human plasma-derived FIXa (Haematologic Technologies Inc) (P00740 47-191, chain 1 of 2): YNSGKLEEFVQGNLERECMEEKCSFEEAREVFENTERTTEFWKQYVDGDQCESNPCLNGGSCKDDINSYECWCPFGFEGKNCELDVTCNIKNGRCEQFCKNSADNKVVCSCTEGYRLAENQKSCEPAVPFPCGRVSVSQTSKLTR
Chain of human plasma-derived FIXa (Haematologic Technologies Inc) (P00740 227-461, chain 2 of 2): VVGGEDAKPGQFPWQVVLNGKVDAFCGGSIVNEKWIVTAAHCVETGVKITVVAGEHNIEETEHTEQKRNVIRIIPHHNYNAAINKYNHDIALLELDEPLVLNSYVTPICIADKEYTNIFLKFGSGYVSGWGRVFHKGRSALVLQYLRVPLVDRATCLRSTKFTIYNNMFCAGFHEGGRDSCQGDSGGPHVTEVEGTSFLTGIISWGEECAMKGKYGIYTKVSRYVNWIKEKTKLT

**Q.** B1 was tested. Which “Stimulation index at 800 nM OA antibody” value did it give?
**A.** The value was 850 fold.

**Q.** Which “Stimulation index at 1600 nM OA antibody” value does the source give for B2 here?
**A.** The value was 1020 fold.

**Q.** B3 was tested. Which “Stimulation index at 800 nM OA antibody” value did it give?
**A.** The value was 732 fold.

**Q.** B4 was tested. Which “Stimulation index at 1600 nM OA antibody” value did it give?
**A.** The value was 320 fold.

**Q.** Which “Stimulation index at 1600 nM OA antibody” value does the source give for B5 here?
**A.** The value was 4320 fold.

**Q.** How did the “Stimulation index at 1600 nM OA antibody” value turn out when B6 was run?
**A.** The value was 1650 fold.

**Q.** For B7, which “Stimulation index at 1600 nM OA antibody” value is on record?
**A.** Its value is 918 fold.

**Q.** Which “Stimulation index at 800 nM OA antibody” value does the source give for B8 here?
**A.** The value was 567 fold.

**Q.** With B9 as the binder, how does the “Stimulation index at 1600 nM OA antibody” value read?
**A.** The value was 283 fold.

**Q.** B10 was tested. Which “Stimulation index at 1600 nM OA antibody” value did it give?
**A.** The value was 531 fold.

**Q.** With B11 as the binder, how does the “Stimulation index at 800 nM OA antibody” value read?
**A.** Its value is 621 fold.

**Q.** Which “Stimulation index at 1600 nM OA antibody” value does the source give for B12 here?
**A.** The value was 1330 fold.

**Q.** Which “Stimulation index at 1600 nM OA antibody” value does the source give for B13 here?
**A.** The value was 417 fold.

**Q.** B14 was tested. Which “Stimulation index at 1600 nM OA antibody” value did it give?
**A.** Its value is 799 fold.

**Q.** For B15, which “Stimulation index at 474 nM OA antibody” value is on record?
**A.** The value was 382 fold.
